Assay results from patent publication US20250326823A1.

Key:
Experiment in all cases: cell-based or functional assay
[1] = biological target: SARS-CoV-2 KP.2 spike (S) protein (SARS-CoV-2)
[2] = biological target: SARS-CoV-2 KP.2.3 spike (S) protein (SARS-CoV-2)
[3] = biological target: SARS-CoV-2 KP.3 spike (S) protein (SARS-CoV-2)
[4] = biological target: SARS-CoV-2 KP.3.1.1 spike (S) protein (SARS-CoV-2)
[5] = biological target: SARS-CoV-2 LB.1 spike (S) protein (SARS-CoV-2)
[6] = biological target: SARS-CoV-2 Omicron sublineage BF.7 spike (S) protein (SARS-CoV-2)
[7] = biological target: SARS-CoV-2 Omicron sublineage CH.1.1 spike (S) protein (SARS-CoV-2)
[8] = biological target: SARS-CoV-2 spike (S) protein, Omicron sublineage BA.2.75.2 (SARS-CoV-2)
[9] = biological target: SARS-CoV-2 spike (S) protein, Omicron sublineage BA.4/5 (SARS-CoV-2)
[10] = biological target: SARS-CoV-2 spike (S) protein, Omicron sublineage BQ.1.1 (SARS-CoV-2)
[11] = biological target: SARS-CoV-2 spike (S) protein, Omicron sublineage XBB (SARS-CoV-2)
[12] = biological target: SARS-CoV-2 spike (S) protein, Omicron sublineage XBB.1.5 (SARS-CoV-2)
[13] = biological target: SARS-CoV-2 B.1.1.7 spike (S) protein (SARS-CoV-2)
[14] = biological target: SARS-CoV-2 B.1.351 spike (S) protein (SARS-CoV-2)
[15] = biological target: SARS-CoV-2 B.1.427 spike (S) protein (SARS-CoV-2)
[16] = biological target: SARS-CoV-2 B.1.429 spike (S) protein (SARS-CoV-2)
[17] = biological target: SARS-CoV-2 B.1.525 spike (S) protein (SARS-CoV-2)
[18] = biological target: SARS-CoV-2 B.1.526 spike (S) protein (SARS-CoV-2)
[19] = biological target: SARS-CoV-2 B.1.617.1 spike (S) protein (SARS-CoV-2)
[20] = biological target: SARS-CoV-2 B.1.617.2 spike (S) protein (SARS-CoV-2)
[21] = biological target: SARS-CoV-2 B.1.621 spike (S) protein (SARS-CoV-2)
[22] = biological target: SARS-CoV-2 BA.1 spike (S) protein (SARS-CoV-2)
[23] = biological target: SARS-CoV-2 BA.2.86 spike (S) protein (SARS-CoV-2)
[24] = biological target: SARS-CoV-2 BA.4/5 spike (S) protein (SARS-CoV-2)
[25] = biological target: SARS-CoV-2 CH.1.1 spike (S) protein (SARS-CoV-2)
[26] = biological target: SARS-CoV-2 EG.5.1 spike (S) protein (SARS-CoV-2)
[27] = biological target: SARS-CoV-2 FL.1.5.1 spike (S) protein (SARS-CoV-2)
[28] = biological target: SARS-CoV-2 HK.3 spike (S) protein (SARS-CoV-2)
[29] = biological target: SARS-CoV-2 HV.1 spike (S) protein (SARS-CoV-2)
[30] = biological target: SARS-CoV-2 JD.1.1 spike (S) protein (SARS-CoV-2)
[31] = biological target: SARS-CoV-2 JF.1 spike (S) protein (SARS-CoV-2)
[32] = biological target: SARS-CoV-2 JN.1 spike (S) protein (SARS-CoV-2)
[33] = biological target: SARS-CoV-2 P.1 spike (S) protein (SARS-CoV-2)
[34] = biological target: SARS-CoV-2 P.2 spike (S) protein (SARS-CoV-2)
[35] = biological target: SARS-CoV-2 XBB spike (S) protein (SARS-CoV-2)
[36] = biological target: SARS-CoV-2 XBB.1.16.6 spike (S) protein (SARS-CoV-2)
[37] = biological target: SARS-CoV-2 XBB.1.5 spike (S) protein (SARS-CoV-2)
[38] = biological target: SARS-CoV-2 XBB.2.3.2 spike (S) protein (SARS-CoV-2)
[39] = biological target: SARS-CoV-2 spike (S) protein, B.1.351 (SARS-CoV-2)
[40] = biological target: SARS-CoV-2 spike (S) protein, B.1.617.2 (SARS-CoV-2)

## ADG20 (antibody)
[1]
  pseudovirus neutralization IC50: > 67 nM
  pseudovirus neutralization IC80: > 67 nM
[2]
  pseudovirus neutralization IC50: > 67 nM
  pseudovirus neutralization IC80: > 67 nM
[3]
  pseudovirus neutralization IC50: > 67 nM
  pseudovirus neutralization IC80: > 67 nM
[4]
  pseudovirus neutralization IC50: > 67 nM
  pseudovirus neutralization IC80: > 67 nM
[5]
  pseudovirus neutralization IC50: > 67 nM
  pseudovirus neutralization IC80: > 67 nM

## LY1404 (antibody)
[6]
  pseudotyped neutralization potency IC50: 0.02 nM
  pseudotyped neutralization potency IC80: 0.18 nM
[7]
  pseudotyped neutralization potency IC50: > 67 nM
  pseudotyped neutralization potency IC80: > 67 nM
[8]
  pseudotyped neutralization potency IC50: 0.04 nM
  pseudotyped neutralization potency IC80: 0.14 nM
[9]
  pseudotyped neutralization potency IC50: 0.01 nM
  pseudotyped neutralization potency IC80: 0.02 nM
[10]
  pseudotyped neutralization potency IC50: > 67 nM
  pseudotyped neutralization potency IC80: > 67 nM
[11]
  pseudotyped neutralization potency IC50: > 67 nM
  pseudotyped neutralization potency IC80: > 67 nM
[12]
  pseudotyped neutralization potency IC50: > 67 nM
  pseudotyped neutralization potency IC80: > 67 nM

## AZD3152 (antibody)
[13]
  pseudovirus neutralization IC50: 0.093 µg/mL
[14]
  pseudovirus neutralization IC50: 0.024 µg/mL
[15]
  pseudovirus neutralization IC50: 0.09 µg/mL
[16]
  pseudovirus neutralization IC50: 0.082 µg/mL
[17]
  pseudovirus neutralization IC50: 0.1 µg/mL
[18]
  pseudovirus neutralization IC50: 0.049 µg/mL
[19]
  pseudovirus neutralization IC50: 0.041 µg/mL
[20]
  pseudovirus neutralization IC50: 0.09 µg/mL
[21]
  pseudovirus neutralization IC50: 0.04 µg/mL
[22]
  pseudovirus neutralization IC50: 0.012 µg/mL
[23]
  pseudotyped neutralization potency IC50: 1.8 nM
  pseudotyped neutralization potency IC80: 5.4 nM
  pseudovirus neutralization IC50: 0.053 µg/mL
[24]
  pseudovirus neutralization IC50: 0.03 µg/mL
[25]
  pseudovirus neutralization IC50: 0.045 µg/mL
[26]
  pseudotyped neutralization potency IC50: > 66.7 nM
  pseudotyped neutralization potency IC80: > 66.7 nM
  pseudovirus neutralization IC50: > 10 µg/mL
[27]
  pseudotyped neutralization potency IC50: > 66.7 nM
  pseudotyped neutralization potency IC80: > 66.7 nM
  pseudovirus neutralization IC50: > 10 µg/mL
[28]
  pseudovirus neutralization IC50: > 10 µg/mL
[29]
  pseudovirus neutralization IC50: > 10 µg/mL
[30]
  pseudovirus neutralization IC50: > 10 µg/mL
[31]
  pseudovirus neutralization IC50: > 10 µg/mL
[32]
  pseudovirus neutralization IC50: 0.766 µg/mL
[33]
  pseudovirus neutralization IC50: 0.047 µg/mL
[34]
  pseudovirus neutralization IC50: 0.02 µg/mL
[35]
  pseudovirus neutralization IC50: 0.011 µg/mL
[36]
  pseudotyped neutralization potency IC50: > 66.7 nM
  pseudotyped neutralization potency IC80: > 66.7 nM
  pseudovirus neutralization IC50: > 10 µg/mL
[37]
  pseudovirus neutralization IC50: 0.016 µg/mL
[38]
  pseudotyped neutralization potency IC50: 0.0806 nM
  pseudotyped neutralization potency IC80: 0.488 nM
  pseudovirus neutralization IC50: 0.025 µg/mL
[39]
  IC50, pseudotyped neutralization potency: 0.023 nM
  IC80, pseudotyped neutralization potency: 0.041 nM
[40]
  IC50, pseudotyped neutralization potency: 0.281 nM
  IC80, pseudotyped neutralization potency: 0.518 nM
